Entries after “also recorded” stand apart in the source; their conditions may differ. Read-outs that look alike come from different tables or passages of the source.
B1: S385A: Full-length NARC1 point mutant; mutation of the active site serine (protein)
chain: MGIRCSTWLRWPLSPQLLLLLLLCPTGSRAQDEDGDYEELMLALPSQEDSLVDEASHVATATFRRCSKEAWRLPGTYVVVLMEETQRLQVEQTAHRLQTWAARRGYVIKVLHVFYDLFPGFLVKMSSDLLGLALKLPHVEYIEEDSLVFAQSIPWNLERIIPAWQQTEEDSSPDGSSQVEVYLLDTSIQSGHREIEGRVTITDFNSVPEEDGTRFHRQASKCDSHGTHLAGVVSGRDAGVAKGTSLHSLRVLNCQGKGTVSGTLIGLEFIRKSQLIQPSGPLVVLLPLAGGYSRILNTACQRLARTGVVLVAAAGNFRDDACLYSPASAPEVITVGATNAQDQPVTLGTLGTNFGRCVDLFAPGKDIIGASSDCSTCYMSQSGTAQAAAHVAGIVAMMLNRDPALTLAELRQRLILFSTKDVINMAWFPEDQRVLTPNRVATLPPSTQETGGQLLCRTVWSAHSGPTRTATATARCAPEEELLSCSSFSRSGRRRGDRIEAIGGQQVCKALNAFGGEGVYAVARCCLLPRVNCSIHNTPAARAGPQTPVHCHQKDHVLTGCSFHWEVENLRAQQQPLLRSRHQPGQCVGHQEASVHASCCHAPGLECKIKEHGIAGPAEQVTVACEAGWTLTGCNVLPGASLPLGAYSVDNVCVARIRDAGRADRTSEEATVAAAICCRSRPSAKASWVHQ
modifications: mutant of rat sequence mutating amino acid Ser385Ala of SEQ ID NO9
B2: H225W, S385A: Full-length NARC1 double mutant; active site histidine and serine mutated (protein)
chain: MGIRCSTWLRWPLSPQLLLLLLLCPTGSRAQDEDGDYEELMLALPSQEDSLVDEASHVATATFRRCSKEAWRLPGTYVVVLMEETQRLQVEQTAHRLQTWAARRGYVIKVLHVFYDLFPGFLVKMSSDLLGLALKLPHVEYIEEDSLVFAQSIPWNLERIIPAWQQTEEDSSPDGSSQVEVYLLDTSIQSGHREIEGRVTITDFNSVPEEDGTRFHRQASKCDSWGTHLAGVVSGRDAGVAKGTSLHSLRVLNCQGKGTVSGTLIGLEFIRKSQLIQPSGPLVVLLPLAGGYSRILNTACQRLARTGVVLVAAAGNFRDDACLYSPASAPEVITVGATNAQDQPVTLGTLGTNFGRCVDLFAPGKDIIGASSDCSTCYMSQSGTAQAAAHVAGIVAMMLNRDPALTLAELRQRLILFSTKDVINMAWFPEDQRVLTPNRVATLPPSTQETGGQLLCRTVWSAHSGPTRTATATARCAPEEELLSCSSFSRSGRRRGDRIEAIGGQQVCKALNAFGGEGVYAVARCCLLPRVNCSIHNTPAARAGPQTPVHCHQKDHVLTGCSFHWEVENLRAQQQPLLRSRHQPGQCVGHQEASVHASCCHAPGLECKIKEHGIAGPAEQVTVACEAGWTLTGCNVLPGASLPLGAYSVDNVCVARIRDAGRADRTSEEATVAAAICCRSRPSAKASWVHQ
modifications: mutant of rat sequence mutating amino acid His225Trp and Ser385Ala of SEQ ID NO9

Key:
NARC1 transfectants = tested on: NARC1 transfectants
Description: Following transient expression of this construct in CGNs, the percentage of GFP positive and GFP negative cells undergoing apoptosis was determined by Laser-Scanning Cytometry.
Following transient expression of the wild-type and point-mutant NARC1 constructs in CGNs, the percentage of GFP-positive cells undergoing apoptosis was determined by Laser-Scanning Cytometry.
The serine protease inhibitors Aminoethyl-benzene sulfonyl fluoride, an irreversible inhibitor (AEBSF), Aprotinin, a reversible inhibitor, and N-Tosyl-lysine-chloromethylketone (TLCK, an inhibitor known to covalently bind to serine proteases) were investigated to see if any of these reagents can rescue the cell death effects of wild-type NARC1. Caspase 9 transfection was included to test for specificity of any rescue effects.
CGNs were transfected with each of the C-terminal truncation mutants described above. Following transient expression of these constructs, the percentage of GFP positive cells undergoing apoptosis was determined by Laser-Scanning Cytometry.

furin = conditions: Bathurst (1987); cited from earlier work
NARC1 = experiment: Autoprocessing of NARC1 transiently expressed in COS-7 cells, Western blotting; format: cell-based, rat; conditions: C-terminal myc/His fusion transiently expressed in COS-7 cells, 60 kD processing product on Western blot
Description: The wild-type NARC1-myc/His clone was transiently expressed in COS-7 cells. The cells were then harvested, lysed, and the protein extracted. Polyacrylamide gel electrophoresis was then carried out on the protein extracts, followed by Western blotting. The resulting membranes were probed using both anti-myc- and NARC1-specific antibodies. Routine techniques and protocols were followed. See, e.g., Ausubel et al.(1998), supra.
This cleavage event maps to approximately the junction between the pro-domain and the enzymatic domain.
Autoprocessing of NARC1 was investigated as follows. COS-7 cells were co-transfected with the following EGFP and myc plasmids: (A) wild-type NARC1-myc and wild-type NARC1-EGFP; (B) S385A NARC1-myc and S385A NARC1-EGFP; and (C) wild-type NARC1-myc and S385A NARC1-myc. The cells were then harvested, lysed, and the protein extracted. Polyacrylamide gel electrophoresis was then carried out on the protein extracts, followed by Western blotting. The resulting membranes were sequentially probed using first the anti-myc and then the anti-EGFP monoclonal antibodies (Abs). Thus, the experiment allowed sequential detection of the separate NARC1 products encoded from the two co-transfected plasmids.
As indicated above, a series of C-terminal truncation mutants were generated. The truncation NARC1-myc/His clones were transiently expressed in COS-7 cells. The cells were then harvested, lysed, the protein extracted, and polyacrylamide gel electrophoresis carried out on the protein extracts. Western analysis was then carried out using both anti-myc and NARC1-specific antibodies.

[1] = tested on: cerebellar granule neurons (CGNs); experiment: Apoptosis after transient expression of NARC1-EGFP constructs in CGNs, Laser-Scanning Cytometry; format: cell-based, rat; conditions: EGFP construct transiently expressed in CGNs, percentage of GFP-positive cells undergoing apoptosis
Description: Cerebellar granule neurons (CGNs) were transfected with a NARC1-enhanced green fluorescent protein (EGFP) expression construct (with the EGFP sequences located at the carboxy terminus of the fusion protein). Unless otherwise indicated, the construct utilized in the following experiments contained 2073 base pairs of the rat NARC1 transcript set forth in FIG. 5. Specifically, this corresponds to nucleotides 205-2277 and amino acid residues 56-746 of SEQ ID NO:4 and SEQ ID NO:3, respectively. The polypeptide sequence encoded by the NARC1 insert utilized herein has been set forth as SEQ ID NO:9 herein. The nucleotide sequence of this insert has been set forth as SEQ ID NO:10.
To investigate NARC1-mediated neuronal cell death, transient expression of the EGFP clones was carried out in cerebellar granule neurons (CGNs). These studies are set forth in detail as follows.

Ntera2 cells = experiment: NARC1-EGFP transfection of Ntera2 cells, nuclear area condensation; format: cell-based, human; conditions: C-terminal EGFP constructs, 24 hours
Description: Specifically, Ntera2 cells were transfected with C-terminal EGFP constructs of wild-type NARC1, each of the point-mutant NARC1s, and caspase 9. At 24 hours, nuclear area condensation was assessed for the entire Ntera2 cell population and compared to nuclear area condensation for the transfected cell population.

Row | Molecule | Autoprocessing Activity (NARC1) | Resulting Cell Death Activity [1] | Sensitivity of cells to expression (nuclear area condensation) (Ntera2 cells) | further results
1 | N-Tosyl-lysine-chloromethylketone [TLCK] |  |  |  | Rescue of cell death in NARC1 transfectants (NARC1 transfectants; 24-hour exposure): some suggestion of rescue; Rescue of cell death in NARC1 transfectants (NARC1 transfectants; 48-hour exposure): increased effectiveness
2 | variant of α1-antitrypsin: α1-antitrypsin variant with replacement of the reactive-site MET residue by ARG; protein-based furin inhibitor |  |  |  | Inhibition of in vitro conversion of proalbumin (furin): inhibit the in vitro conversion of proalbumin
3 | B1 | absence of autoprocessing; also recorded: eliminate NARC1 autoprocessing; also recorded: Absence of processing | reduced, but still substantial, pro-apoptotic effect; also recorded: somewhat reduce the pro-apoptotic effect; also recorded: Reduced activity | equally sensitive | 
4 | B2 | eliminate NARC1 autoprocessing; also recorded: Absence of processing | somewhat reduce the pro-apoptotic effect; also recorded: Reduced activity | equally sensitive | Autoprocessing Activity (NARC1; listed as double mutant): absence of autoprocessing; Resulting Cell Death Activity ([1]; listed as double mutant): reduced, but still substantial, pro-apoptotic effect

Source: patent US20030119038A1, “NARC1, novel subtilase-like homologs” (priority 1999, published 2003)
